Biological target: pVP28-Agα1p displayed on the cell surface of P. pastoris (white spot syndrome virus (WSSV))
Test: yeast agglutination; two yeast clones mixed in PBS with 1% BSA at initial OD600 = 0.7, left to stand 1 h; percent agglutination from the fall in OD600; cells induced with methanol 24-96 h

With “mPmRab7-Agα1p displayed on the cell surface of P. pastoris (domain or fragment)” as the substance, how does the percent agglutination (48 h induction) read?
Its percent agglutination (48 h induction) is 38%.

What about the percent agglutination (longer induction times) of the same substance?
Its percent agglutination (longer induction times) is 20%.

Reference: PMC4471349
